Test results: paper PMC6661908

Tested on: FOXA1 P358fs (purified)
Assay: BLI
Conditions: buffer, pH and temperature not given

For KLK3 enhancer 60 bp, the binding signal (fold higher affinity than WT) was 5.
